Data on one molecule can be found in PMC2887978.

This series addresses MBD2b (UniProt Q9UBB5 150-411). Description: EMSA. A general note: A gel shift assay detects complexes by their altered migration in electrophoresis.

Chain of MBD2b (Q9UBB5 150-411): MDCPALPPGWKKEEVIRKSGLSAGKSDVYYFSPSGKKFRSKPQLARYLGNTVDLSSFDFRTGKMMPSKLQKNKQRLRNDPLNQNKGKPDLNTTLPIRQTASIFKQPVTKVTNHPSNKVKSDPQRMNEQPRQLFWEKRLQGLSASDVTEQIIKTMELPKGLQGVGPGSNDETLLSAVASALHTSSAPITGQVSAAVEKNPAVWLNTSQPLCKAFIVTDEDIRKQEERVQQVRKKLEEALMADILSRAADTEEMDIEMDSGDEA

B1: C76 (dsDNA)
DNA 1: CCTCACCATCTCAACCAATATTATATTACGCGTATATCGCGTATTTCGCGTTATAATATTGAGGGAGAAGTGGTGA
DNA 2: TCACCACTTCTCCCTCAATATTATAACGCGAAATACGCGATATACGCGTAATATAATATTGGTTGAGATGGTGAGG
Take B1: the binding result is “no binding”.
